We go through five substances from patent US8003342.

The test has as its target rat brain farnesyl:protein transferase (rat) (UniProt Q04631). The test can be described thus: cell-based or functional assay.

“CVIM with glutamic acid at the A2 position (peptide)” registered a fold decline of affinity greater than 50 fold.

Substance “CVIM with lysine at the X position (peptide)” gave a concentration giving 50% inhibition greater than 40 µM and a fold decrease of affinity against CVIM, from the concentration required for 50% inhibition greater than 30 fold.

Consider “CVIM with glycine at the X position (peptide)”, for which the concentration giving 50% inhibition is greater than 40 µM.

“CVIM with glutamic acid at the X position (peptide)” showed a concentration giving 50% inhibition greater than 40 µM.

Substance “CVIM with lysine at the A2 position (peptide)” yielded a fold decline of affinity greater than 50 fold and a fold decrease of affinity against CVIM, from the concentration required for 50% inhibition greater than 30 fold.
